± gives the uncertainty stated by the source.
B1: Serine/threonine-protein kinase LATS1, residues 98 to 141; numbered along this chain, O95835 (parent)
chain: TSEVNPQMLQDLQAAGFDEDMVIQALQKTNNRSIEAAIEFISKM
B2: Histone H1t, residues 44 to 112; numbered along this chain, P22492 (parent)
chain: VSKLITEALSVSQERVGMSLVALKKALAAAGYDVEKNNSRIKLSLKSLVNKGILVQTRGTGASGSFKLS

Variants of: B1
Assay: abundance fitness (aPCA) (normalised: wild type 0, dead -1); higher = more abundant; growth selection in yeast, the domain comes from the species named
Conditions: Homo sapiens

| Variant | abundance fitness |
| --- | --- |
| E39W | -0.728 ± 0.051 |
| E39M | -0.286 ± 0.093 |
| E39V | -0.717 ± 0.047 |
| E39H | -0.084 ± 0.082 |
| M21S | -0.038 ± 0.038 |
| M21T | 0.088 ± 0.053 |
| M21P | -0.491 ± 0.051 |
| M21W | -0.32 ± 0.044 |
| I41A | -0.282 ± 0.035 |
| I41Y | -0.434 ± 0.068 |
| I41K | -0.255 ± 0.052 |
| L12R | -0.715 ± 0.043 |
| L12M | -0.119 ± 0.081 |
| L12P | -0.644 ± 0.12 |
| Q10R | 0.012 ± 0.037 |
| Q10G | -0.231 ± 0.033 |
| Q10P | -1 ± 0.11 |
| Q10E | -0.077 ± 0.039 |
| Q10I | -0.267 ± 0.044 |
| Q10N | -0.105 ± 0.24 |
| Q10L | -0.173 ± 0.034 |
| E3D | -0.099 ± 0.069 |
| E3K | -0.042 ± 0.05 |
| E3R | -0.202 ± 0.035 |

| Variant | abundance fitness |
| --- | --- |
| S33N | -0.56 ± 0.3 |
| S33T | -0.555 ± 0.063 |
| N31I | -0.577 ± 0.21 |
| N31C | -0.139 ± 0.041 |
| N31M | -0.484 ± 0.063 |
| N31P | -0.459 ± 0.048 |
| L9R | -0.104 ± 0.062 |
| L9Q | -0.124 ± 0.08 |
| L9V | -0.045 ± 0.039 |
| L9E | -0.273 ± 0.049 |
| L9A | 0.004 ± 0.049 |
| G16P | -0.687 ± 0.093 |
| G16S | -0.88 ± 0.059 |
| G16V | -1.11 ± 0.085 |
| L26M | -0.559 ± 0.072 |
| L26F | -0.54 ± 0.096 |
| F40S | -0.131 ± 0.037 |
| V4S | -0.444 ± 0.038 |
| V4L | -0.367 ± 0.038 |
| V4C | -0.277 ± 0.044 |
| V4Y | -0.272 ± 0.085 |
| V4R | -0.515 ± 0.036 |
| S42Q | 0.127 ± 0.052 |
| S42A | -0.023 ± 0.033 |

| Variant | abundance fitness |
| --- | --- |
| S42P | -0.401 ± 0.044 |
| S42G | -0.002 ± 0.03 |
| S42R | 0.048 ± 0.033 |
| S42H | 0.054 ± 0.071 |
| S42V | -0.219 ± 0.035 |
| S42E | 0.136 ± 0.038 |
| T29L | -0.954 ± 0.071 |
| T29N | -0.414 ± 0.1 |
| T29K | -0.806 ± 0.1 |
| T29G | -0.527 ± 0.033 |
| T29P | -0.524 ± 0.1 |
| M8K | -0.485 ± 0.056 |
| M8L | -0.203 ± 0.035 |
| M8S | -0.543 ± 0.04 |
| M8I | -0.431 ± 0.062 |
| E19R | 0.078 ± 0.033 |
| E19N | -0.233 ± 0.05 |
| E19V | -0.17 ± 0.033 |
| E19S | -0.035 ± 0.045 |
| E19D | -0.154 ± 0.041 |
| I23T | -0.041 ± 0.045 |
| D11T | -0.048 ± 0.05 |
| D11R | -0.134 ± 0.035 |
| D11A | -0.017 ± 0.033 |

| Variant | abundance fitness |
| --- | --- |
| D11P | -1.08 ± 0.15 |
| D11I | -0.083 ± 0.055 |
| D11N | -0.004 ± 0.14 |
| D20Y | -0.535 ± 0.12 |
| D20T | -0.059 ± 0.049 |
| D20H | -0.234 ± 0.082 |
| R32H | 0.045 ± 0.078 |
| R32C | 0.007 ± 0.068 |
| R32M | -0.107 ± 0.05 |
| R32K | 0.238 ± 0.1 |
| E35N | -0.204 ± 0.06 |
| E35G | -0.173 ± 0.031 |
| E35H | -0.151 ± 0.089 |
| E35R | -0.263 ± 0.035 |
| E35M | -0.307 ± 0.24 |
| S2C | -0.154 ± 0.093 |
| S2M | -0.143 ± 0.043 |
| S2L | -0.219 ± 0.035 |
| S2Q | -0.035 ± 0.054 |
| S2N | -0.057 ± 0.052 |
| A37S | -0.441 ± 0.05 |
| A37L | -0.728 ± 0.06 |
| I34Q | -0.09 ± 0.042 |
| I34C | -0.02 ± 0.043 |

| Variant | abundance fitness |
| --- | --- |
| I34Y | -0.468 ± 0.15 |
| V22N | -0.448 ± 0.092 |
| V22H | -0.618 ± 0.12 |
| V22L | -0.538 ± 0.052 |
| V22M | -0.674 ± 0.066 |
| V22G | -0.008 ± 0.033 |
| N5V | -0.716 ± 0.065 |
| N5Q | -0.528 ± 0.071 |
| I38L | -0.078 ± 0.037 |
| I38V | -0.024 ± 0.038 |
| I38W | -0.339 ± 0.043 |
| D18E | 0.036 ± 0.04 |
| D18R | -0.22 ± 0.036 |
| D18A | -0.032 ± 0.036 |
| D18M | -0.59 ± 0.058 |
| D18T | -0.204 ± 0.047 |
| D18W | -0.853 ± 0.12 |
| D18Q | -0.077 ± 0.068 |
| D18H | -0.159 ± 0.1 |
| A15F | -0.3 ± 0.087 |
| A15G | -0.492 ± 0.033 |
| Q7G | -0.157 ± 0.033 |
| Q7F | -0.549 ± 0.096 |
| Q7R | -0.129 ± 0.031 |

| Variant | abundance fitness |
| --- | --- |
| Q7N | -0.227 ± 0.069 |
| T1N | 0.316 ± 0.13 |
| T1F | -0.032 ± 0.23 |
| T1C | -0.098 ± 0.046 |
| T1I | -0.079 ± 0.056 |
| T1D | 0.018 ± 0.087 |
| T1G | 0.023 ± 0.041 |
| A25P | -0.415 ± 0.056 |
| A25W | -0.728 ± 0.042 |
| A25M | -0.887 ± 0.1 |
| A25H | -0.937 ± 0.21 |
| A25N | -0.622 ± 0.13 |
| A14D | 0.04 ± 0.072 |
| A14Q | -0.132 ± 0.051 |
| A14E | 0.039 ± 0.039 |
| Q27V | -0.043 ± 0.039 |
| Q27S | -0.071 ± 0.036 |
| Q27P | -0.597 ± 0.055 |
| Q27L | -0.068 ± 0.04 |
| Q13M | 0.046 ± 0.06 |
| Q13F | -0.536 ± 0.064 |
| F17E | -0.272 ± 0.043 |
| F17G | -0.465 ± 0.036 |
| F17T | -0.609 ± 0.052 |

| Variant | abundance fitness |
| --- | --- |
| F17R | -0.648 ± 0.046 |
| F17N | -0.116 ± 0.26 |
| F17S | -0.495 ± 0.038 |
| Q24R | -0.103 ± 0.033 |
| Q24I | -0.015 ± 0.083 |
| Q24P | -0.323 ± 0.048 |
| Q24H | 0.055 ± 0.048 |
| N30S | -0.107 ± 0.042 |
| K43L | -0.117 ± 0.041 |
| K43I | -0.435 ± 0.14 |
| K43C | -0.156 ± 0.093 |
| K43D | -0.03 ± 0.05 |
| K43R | -0.027 ± 0.032 |
| A36Y | -0.632 ± 0.092 |
| A36K | -0.21 ± 0.05 |
| P6R | 0.039 ± 0.032 |
| K28V | -0.163 ± 0.036 |
| K28W | -0.444 ± 0.035 |
| K28D | -0.257 ± 0.063 |
| M44L | -0.11 ± 0.038 |
| M44V | 0.011 ± 0.041 |

Variants of: B2
Assay: as above
Conditions: Homo sapiens

| Variant | abundance fitness |
| --- | --- |
| Q56E | 0.127 ± 0.045 |
| K36Q | -0.152 ± 0.044 |

— the Human Domainome abundance scans (Beltran et al. 2025)
